Experimental findings from publication PMC4694823, “Tumorigenesis by Meis1 overexpression is accompanied by a change of DNA target-sequence specificity which allows binding to the AP-1 element” are described below.

The target of series [1] is T1, Prep1 (pKnox1);Pbx1 (mouse?;mouse?, UniProt O70477;P41778 1-344;1-308, |).
T1 sequence 1: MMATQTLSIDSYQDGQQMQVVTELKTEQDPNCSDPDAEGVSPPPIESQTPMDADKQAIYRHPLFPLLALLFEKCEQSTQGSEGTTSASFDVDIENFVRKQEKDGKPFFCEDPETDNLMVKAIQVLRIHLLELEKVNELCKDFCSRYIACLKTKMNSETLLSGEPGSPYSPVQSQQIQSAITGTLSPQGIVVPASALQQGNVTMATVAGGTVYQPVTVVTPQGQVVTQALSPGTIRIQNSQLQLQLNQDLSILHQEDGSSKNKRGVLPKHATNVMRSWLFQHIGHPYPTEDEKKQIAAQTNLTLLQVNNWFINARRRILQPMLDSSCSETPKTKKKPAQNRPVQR
T1 sequence 2: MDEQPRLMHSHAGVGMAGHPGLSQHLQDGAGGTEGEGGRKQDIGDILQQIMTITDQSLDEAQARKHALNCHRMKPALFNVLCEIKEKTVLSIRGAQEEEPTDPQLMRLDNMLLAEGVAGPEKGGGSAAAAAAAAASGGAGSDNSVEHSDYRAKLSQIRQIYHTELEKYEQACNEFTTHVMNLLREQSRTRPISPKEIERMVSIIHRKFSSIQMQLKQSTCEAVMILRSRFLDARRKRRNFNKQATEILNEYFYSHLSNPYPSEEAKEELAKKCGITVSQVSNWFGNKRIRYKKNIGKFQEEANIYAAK
The series is described as follows: EMSA; 15 uL reactions with 5% glycerol, 1 ug poly-dIdC, 1.3 uM ds oligo, 12 ug Meis1/Pbx1 or 7 ug Prep1/Pbx1; 30 min on ice; 5-15% native PAGE, GelRed stain; buffer. Particulars: protein: recombinant;recombinant; tags: GST fusion from modified pGEX6p-2rbs; copies: 1;1; blunt.

The target in series [2] is T2, Meis1;Pbx1 (mouse?;mouse?, UniProt Q60954;P41778 1-390;1-308, |).
T2 sequence 1: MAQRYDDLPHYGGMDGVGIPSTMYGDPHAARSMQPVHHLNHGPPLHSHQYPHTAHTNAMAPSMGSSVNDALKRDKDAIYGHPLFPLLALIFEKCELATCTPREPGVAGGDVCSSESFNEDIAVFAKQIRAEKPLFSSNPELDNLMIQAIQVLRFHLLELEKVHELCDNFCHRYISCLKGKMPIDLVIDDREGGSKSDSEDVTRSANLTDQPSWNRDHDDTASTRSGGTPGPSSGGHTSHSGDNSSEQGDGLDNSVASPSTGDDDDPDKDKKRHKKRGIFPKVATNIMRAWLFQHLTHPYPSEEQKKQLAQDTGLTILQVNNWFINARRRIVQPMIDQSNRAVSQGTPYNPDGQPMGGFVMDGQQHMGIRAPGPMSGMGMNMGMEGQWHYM
T2 sequence 2: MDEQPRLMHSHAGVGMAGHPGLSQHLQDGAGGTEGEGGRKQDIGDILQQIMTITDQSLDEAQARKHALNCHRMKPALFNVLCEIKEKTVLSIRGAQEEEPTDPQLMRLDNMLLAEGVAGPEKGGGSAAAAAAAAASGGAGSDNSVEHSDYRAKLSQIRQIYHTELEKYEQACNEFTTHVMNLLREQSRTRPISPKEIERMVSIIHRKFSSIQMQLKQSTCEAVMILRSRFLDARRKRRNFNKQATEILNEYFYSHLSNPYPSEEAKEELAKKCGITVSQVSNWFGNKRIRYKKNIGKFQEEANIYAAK
The series is described as follows: EMSA; binds at lower protein:DNA ratio than AP1; 15 uL reactions with 5% glycerol, 1 ug poly-dIdC, 1.3 uM ds oligo, 12 ug Meis1/Pbx1 or 7 ug Prep1/Pbx1; 30 min on ice; 5-15% native PAGE, GelRed stain; buffer. The following applies: protein: recombinant;recombinant; tags: GST fusion from modified pGEX6p-2rbs; copies: 1;1; blunt.

The next series has as its target c-Fos;c-Jun (;, UniProt P01100;P05412 1-380;1-331, |). The series is described as follows: EMSA; 15 uL reactions with 5% glycerol, 1 ug poly-dIdC, 1.3 uM ds oligo, 12 ug Meis1/Pbx1 or 7 ug Prep1/Pbx1; 30 min on ice; 5-15% native PAGE, GelRed stain; buffer. Particulars: protein: commercial;commercial; tags: ;; copies: 1;1; blunt.
Series [3] has as its target T2, Meis1;Pbx1. The series is described as follows: EMSA; needs higher protein:DNA ratio than OCTA; 15 uL reactions with 5% glycerol, 1 ug poly-dIdC, 1.3 uM ds oligo, 12 ug Meis1/Pbx1 or 7 ug Prep1/Pbx1; 30 min on ice; 5-15% native PAGE, GelRed stain; buffer. The following applies: protein: recombinant;recombinant; tags: GST fusion from modified pGEX6p-2rbs; copies: 1;1; blunt.

The target in series [4] is T1, Prep1 (pKnox1);Pbx1. The series is described as follows: EMSA; binds also at low protein:DNA ratio; AP1 oligo taken as the only printed single AP1 oligo; 15 uL reactions with 5% glycerol, 1 ug poly-dIdC, 1.3 uM ds oligo, 12 ug Meis1/Pbx1 or 7 ug Prep1/Pbx1; 30 min on ice; 5-15% native PAGE, GelRed stain; buffer. Particulars: protein: recombinant;recombinant; tags: GST fusion from modified pGEX6p-2rbs; copies: 1;1; blunt.

Series [5] deals with T2, Meis1;Pbx1. The series is described as follows: EMSA; 15 uL reactions with 5% glycerol, 1 ug poly-dIdC, 1.3 uM ds oligo, 12 ug Meis1/Pbx1 or 7 ug Prep1/Pbx1; 30 min on ice; 5-15% native PAGE, GelRed stain; buffer. Particulars: protein: recombinant;recombinant; tags: GST fusion from modified pGEX6p-2rbs; copies: 1;1; blunt.

Sequence of c-Fos;c-Jun (P01100 whole entry, chain 1 of 2, the tested form may be a part): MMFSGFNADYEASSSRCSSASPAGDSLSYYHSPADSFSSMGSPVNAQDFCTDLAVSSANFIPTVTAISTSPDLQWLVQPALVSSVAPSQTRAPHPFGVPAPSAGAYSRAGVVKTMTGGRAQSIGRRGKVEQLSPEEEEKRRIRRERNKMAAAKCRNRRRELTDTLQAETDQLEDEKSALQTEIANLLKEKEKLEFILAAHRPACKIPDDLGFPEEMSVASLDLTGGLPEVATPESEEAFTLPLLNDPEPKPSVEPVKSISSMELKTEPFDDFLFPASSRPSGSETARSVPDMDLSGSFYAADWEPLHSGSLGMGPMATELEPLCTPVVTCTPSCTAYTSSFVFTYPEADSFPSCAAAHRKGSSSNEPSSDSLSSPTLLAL
Sequence of c-Fos;c-Jun (P05412 whole entry, chain 2 of 2, the tested form may be a part): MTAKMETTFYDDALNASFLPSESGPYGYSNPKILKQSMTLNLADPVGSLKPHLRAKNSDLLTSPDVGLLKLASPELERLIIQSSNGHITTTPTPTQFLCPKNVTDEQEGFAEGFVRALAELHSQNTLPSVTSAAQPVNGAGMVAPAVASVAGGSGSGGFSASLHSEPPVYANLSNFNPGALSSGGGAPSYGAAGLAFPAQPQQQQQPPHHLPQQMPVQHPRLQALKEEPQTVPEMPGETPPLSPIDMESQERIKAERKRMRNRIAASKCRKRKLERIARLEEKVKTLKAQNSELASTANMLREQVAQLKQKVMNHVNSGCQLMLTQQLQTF

B1: DECA (dsDNA)
DNA 1: AGCTGACCTCTGAGTGACAGGGTGGAATGTGA
DNA 2: TCACATTCCACCCTGTCACTCAGAGGTCAGCT
For the molecule B1, the binding result with Prep1 (pKnox1);Pbx1 [1] is recorded as “binds”.

B2: OCTA (dsDNA)
DNA 1: GAAAGTGATAAATAATACAAGGAAAGC
DNA 2: GCTTTCCTTGTATTATTTATCACTTTC
With B2, the binding result in the series with Meis1;Pbx1 [2] was “binds”.

B3: AP1 (dsDNA)
DNA 1: CATTACCATGAGTCATTGGGCTTGCTC
DNA 2: GAGCAAGCCCAATGACTCATGGTAATG
B3: the binding result with c-Fos;c-Jun, with Meis1;Pbx1 [3] and with Prep1 (pKnox1);Pbx1 [4] was “binds” in each case.

B4: AP1+DECA (dsDNA)
DNA 1: TAAAATGCTGAGTCACTGACTGACAGCTTTAGGCT
DNA 2: AGCCTAAAGCTGTCAGTCAGTGACTCAGCATTTTA
Take B4: in the series with Prep1 (pKnox1);Pbx1 [1], the binding result was “binds”.

B5: OCTA+AP1 (dsDNA)
DNA 1: ATTATAGTGATGAATCATCATGACTCATGGTCCAG
DNA 2: CTGGACCATGAGTCATGATGATTCATCACTATAAT
As for B5, the binding result with Meis1;Pbx1 [5] is “binds”.
